Holding throughout (type): biochemical
For assay [1], the target named is T1, thrombin (Homo sapiens, UniProt P00734).
T1 construct: from tissue; host or cells: whole blood of subjects
Nature of the assay: Thrombin detection using thrombin-specific charge-changing peptide substrate in 1×PBS or citrated blood. The note with it: 0-100 nM. The protocol: Various concentrations (0 nM, 0.5 nM, 5 nM, 10 nM, 20 nM, or 100 nM) of the thrombin targeted charge-changing peptide shown in FIG. 9 (and with the sequence Ac-N-D^−-D^−-Nle-T-P-R^+//G-S-A-G-A-G-A-G-diamino-ethyl-BFL (SEQ ID NO:1)) was incubated in either 1×PBS (FIG. 10A) or citrated blood (FIG. 10B), both of which contained thrombin. After incubation, fluorescence was measured, indicating specific binding of the peptide to the thrombin in the sample.

Assay [2] concerns the target T1, thrombin. As to the kind of experiment: Whole blood thrombin detection with charge-changing peptide. The note with it: untreated whole blood. Here is the method: The thrombin targeted charge-changing peptide shown in FIG. 9 (and with the sequence Ac-N-D^−-D^−-Nle-T-P-R^+//G-S-A-G-A-G-A-G-diamino-ethyl-BFL (SEQ ID NO:1)) was incubated in untreated whole blood for up to 33 minutes. A negative control was also prepared See FIG. 11A. Fluorescence was measured at 3 minute intervals during incubation.

Assay [3] has as its target T1, thrombin. As to the kind of experiment: Coagulation monitoring: thrombin activity in whole blood of subjects taking anticoagulant vs control. Here is the method:
To detect thrombin activity and monitor coagulation, the thrombin targeted charge-changing peptide shown in FIG. 9 (and with the sequence of Ac-N-D^−-D^−-Nle-T-P-R^+//G-S-A-G-A-G-A-G-diamino-ethyl-BFL (SEQ ID NO:1)) was incubated in a drop of whole blood from subjects taking an anticoagulant (aspirin) and from control subjects that were not taking an anticoagulant. Fluorescence signal, indicating specific binding of the peptide to thrombin in the whole blood sample, was measured at various time points up to 30 minutes.

A further assay deals with cathepsin-S (Homo sapiens, UniProt P25774). Nature of the assay: Cathepsin-S detection in buffer with charge-changing peptide. The note with it: 1×PBS buffer with varying concentrations of cathepsin-S. Here is the method:
The cathepsin-S targeted charge-changing peptide shown in FIG. 9 (and with the sequence N-SUC^−-E^−-G-R^+-W-H-T-V-G//L-R^+-W-E^−-C(Cy5^−)-R^+CO-NH2 (SEQ ID NO:5)) was incubated in 1×PBS buffer with varying concentrations of cathepsin-S. After incubation, fluorescence was measured, indicating specific binding of the peptide to the cathepsin-S in the sample.

Experimental findings from patent US11506662B2, “Detection, identification, and purification of degradative and non-degradative enzymes in biological samples” (The Regents of the University of California, priority 2016, dated 2022) are described below.

Starred links: 1 amine or outer side, 2 acyl side, 3 side chain; linkers in the order of their positions; H or OH if unused. Non-standard residues stand in square brackets, D forms with d. *: point of attachment. BFL = BODIPY FL (diaminoethyl-BODIPY FL label), CC1=CC(C)=[N+]2C1=Cc1ccc(CCC(=O)NCCN*)n1[B-]2(F)F; diaminoethyl = diaminoethyl linker to BODIPY FL label; Suc = O=C(CCC(=O)[*:2])[*:1]; Cy5 = Cy5 fluorescent dye; Nle = CCCC[C@H](N)C(=O)O

Sequence of cathepsin-S (P25774 115-331, species assumed): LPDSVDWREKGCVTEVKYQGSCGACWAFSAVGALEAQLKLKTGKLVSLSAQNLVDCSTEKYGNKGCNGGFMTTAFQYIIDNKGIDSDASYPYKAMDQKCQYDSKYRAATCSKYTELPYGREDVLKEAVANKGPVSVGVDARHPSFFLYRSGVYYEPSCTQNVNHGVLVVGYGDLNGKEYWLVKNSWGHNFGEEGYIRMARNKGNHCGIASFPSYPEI

In the case of “Ac-N-D^−-D^−-Nle-T-P-R^+//G-S-A-G-A-G-A-G-diamino-ethyl-BFL (Ac-NDD[Nle]TPRGSAGAGAG-{diaminoethyl-BFL}) [SEQ ID NO:1, thrombin targeted charge-changing fluorescent peptide substrate]”, the Fluorescence after incubation result in the assay with thrombin [1] (1×PBS containing thrombin) and in the assay with thrombin [1] (citrated blood containing thrombin) was “Fluorescence increased with increasing thrombin concentration” each time. For the same compound, the “Time of peak fluorescence values” with thrombin [2] (incubation up to 33 minutes) is reported as “about 18 minutes”. The “Fluorescence signal during incubation” value in the assay with thrombin [2] (up to 33 minutes, measured at 3 minute intervals) is recorded as “increased over time”. Further, the “Fluorescence signal (thrombin activity) over time” value in the assay with thrombin [3] (drop of whole blood, time points up to 30 minutes, both subject groups) is on record as “increased in both subject groups over time”.

In the case of `CC(=O)Oc1ccccc1C(=O)O` [aspirin, reference compound], the “Rate of fluorescence increase (thrombin activity), anticoagulant subjects vs control” value on thrombin [3] (whole blood from subjects taking aspirin vs subjects not taking an anticoagulant, up to 30 minutes) is “more quickly in the control group”.

Take “N-SUC^−-E^−G-R^+-W-H-T-V-G//L-R^+-W-E^−-C(Cy5^−)-R^+-CO-NH2 (Suc-EGRWHTVGLRWEC(Cy5)R-NH2) [SEQ ID NO:5, cathepsin-S targeted charge-changing fluorescent peptide substrate]”: in the assay with cathepsin-S, the Fluorescence after incubation entry is given as “Fluorescence increased with increasing cathepsin-S concentration”.
